Results from patent US6348311B1, “ATM kinase modulation for screening and therapies” (St. Jude Childre's Research Hospital, priority 1999, dated 2002).
Where no end group is shown, it is not given here.

How the values were obtained:
Type in all cases: biochemical
ATM kinase = molecular target: T1, ATM kinase (Homo sapiens, UniProt Q13315); experiment: In vitro kinase assay, ATM with GST-peptide / GST-fusion substrates; conditions: for Relative Phosphorylation (%) ATM: GST-peptide substrate, relative to the p53ser15 site;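 on all read-outs here: immunoprecipitated ATM incubated with [γ-32P]ATP at 30 °C for 20 min, substrates resolved by SDS-PAGE and radiolabel incorporation quantified by PhosphorImager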
T1 construct: The full-length cDNA encoding NH2-terminal, FLAG-tagged wild-type ATM; made in house; host or cells: 293T cells, transient transfection with pcDNA-FLAG-ATMwt, anti-FLAG M2 immunoprecipitate on beads

ATR = molecular target: T2, ATR (Homo sapiens, UniProt Q13535); experiment: In vitro kinase assay, ATR with GST-peptide / GST-fusion substrates; conditions: GST-peptide substrate; relative to the p53ser15 site
T2 construct: made in house; host or cells: 293T cells, transient transfection with pBJF-FRPwt, anti-FLAG M2 immunoprecipitate
Procedure: (§1) FIGS. 1A, 1B, and 1C. Phosphorylation of GST-p53 mutant peptides (amino acids 9-21) by ATM, ATR, and DNA-PK in vitro. In vitro kinase assays with immunoprecipitated, transfected flag-tagged ATM (A) or ATR (B) or purified DNA-PK (C) were performed with GST-p53 peptides containing the amino acid substitutions indicated. The amount of 32P-labeled GST-peptides was quantitated with a PhosphorImager and was normalized for each of the kinases to the level of phosphorylation of wild-type GST-p53.
(§2) FIGS. 2A, 2B, and 2C. Phosphorylation of candidate targets of by ATM, ATR and DNA-PK in vitro. GST-peptides containing the putative target sequences were used as substrates for the kinase assay.
Transfection and Kinase Activity Assays. 293T cells were transiently transfected with 10 μg of either pcDNA-FLAG-ATMwt, pcDNA-FLAG-ATMkd, pBJF-FRPwt or pBJF-FRPkd (Cliby et al., EMBO J., 17:159, 1998) using calcium phosphate and harvested two days later. Cells were lysed through sonication in TGN buffer [50 mM Tris (pH 7.5), 50 mM glycerophosphate, 150 mM NaCl, 10% glycerol, 1% Tween 20, 1 mM NaF, 1 mM NaVO4, 1 mM PMSF, […] Pepstatin A, 5 μg/ml leupeptin, 10 μg/ml Aprotinin and 1 mM DTT] as described (Brunn et al., Science, 277:99-101,1997). After centrifugation at 13,000 ×g, 2 mg of extract were incubated with mouse IgG and protein A/G sepharose beads (Calbiochem). FLAG-tagged proteins were then immunoprecipitated with anti-FLAG M2 monoclonal antibody (Eastman Kodak Company) and protein A/G sepharose beads. Immunoprecipitates were washed twice with TGN buffer, once with 100 mM Tris (pH 7.5) plus 0.5 M LiCl, and twice with kinase buffer [10 mM Hepes (pH 7.5), 50 mM glycerophosphate, 50 mM NaCl, 10 mM MgCl2, 10 mM MnCl2, 5 μM ATP, and 1 mM DTT]. Kinase reactions were initiated by resuspending washed beads in 30 μl of kinase buffer containing 10 μCi [γ-^32P]ATP and 1 μg GSTp531-101 and incubated for 30 minutes at 30° C. Proteins were electrophoretically separated by SDS-polyacrylamide gel electrophoresis, transferred to nitrocellulose, and analyzed on a PhosphorImager. FLAG-tagged proteins and GSTp531-101 were subjected to immunoblotting with either anti-FLAG M2 antibody or monoclonal antibodies directed towards the NH2-terminus of p53 (Ab-2 and Ab-6, Calbiochem) as described (Siliciano et al., Genes Dev., 11:3471, 1997).
Phosphorylation of Ser^15 of p53 by ATM and ATR/FRP1 in vitro. […] Proteins from each reaction were separated by SDS polyacrylamide gel electrophoresis (7% gel), transferred to nitrocellulose, and analyzed either on a PhosphorImager or by immunoblotting. Amounts of FLAG-tagged ATM or ATR in each kinase reaction were measured by immunoblotting with anti-FLAG M2 (top panel) and amount of [γ^32P]phosphate incorporated into ATM or ATR during the reaction (lower panel). […] An upper immunoreactive band represents phosphorylated GSTp53 fusion protein. The same exposures were used for ATM, ATR/FRP1 and corresponding substrate proteins.
(§3) Plasmids and GST-fusion protein production. For GST fusion peptide expression vectors, complementary oligonucleotides encoding desired peptides (14 amino acids) were cloned into the BamHI/SmaI site of pGEX-2T (Pharmacia). The constructs were confirmed by restriction enzyme digests and DNA sequencing. To construct the larger GST-p95 (327-391) protein fragment, p95 DNA encoding amino acids 327-391 was amplified by PCR with Pfu polymerase using the following primers: 5′ sense,
In vitro kinase assays and immunoprecipitation. […] Cleared supernatants were immunoprecipitated with anti-Flag M2 antibody and protein A/G agarose, the beads were washed with TGN buffer followed by TGN buffer plus 0.5 M LiCl, and two washes with kinase buffer [20 mM HEPES (pH 7.5), 50 mM NaCl, 10 mM MgCl2, 1 mM dithiothreitol (DTT) and 10 mM MnCl2]. […] ATP and […] of GST-fusion substrate (GST-p53:1-101), in varying concentration of Mn^2+. […]

DNA-PK = DNA-PK (Homo sapiens, UniProt P78527); experiment: In vitro kinase assay, purified DNA-PK with GST-peptide / GST-fusion substrates; conditions: for Relative Phosphorylation (%) DNA-PK: GST-peptide substrate, relative to the p53ser15 site
Procedure: as §1, §2, §3
In vitro kinase assays and immunoprecipitation. […] Cleared supernatants were immunoprecipitated with anti-Flag M2 antibody and protein A/G agarose, the beads were washed with TGN buffer followed by TGN buffer plus 0.5 M LiCl, and two washes with kinase buffer [20 mM HEPES (pH 7.5), 50 mM NaCl, 10 mM MgCl2, 1 mM dithiothreitol (DTT) and 10 mM MnCl2]. […] ATP and […] of GST-fusion substrate (GST-p53:1-101), in varying concentration of Mn^2+. The kinase reaction was conducted at 30° C. for 20 min and stopped by the addition of SDS-PAGE loading buffer. Proteins were separated on SDS-polyacrylamide gel electrophoresis (SDS-PAGE) and transferred to nitrocellulose. Radiolabeled proteins were visualized and quantitated on a Phosphorimager (Molecular Dynamics). Use of equivalent amounts of flag-tagged ATM or ATR in the different lanes was confirmed by immunoblotting with anti-flag antibody. In some reactions, either supercoiled DNA (pBluescript II KS, Stratagene) or linearized DNA (pBluescript II KS cut with EcoR1) was added ([…]). For endogenous ATM kinase reactions, endogenous ATM was immunoprecipitated from GM0536 lymphhoblasts with ATM monoclonal antibody (D16.11) in M buffer (PBS, 10% glycerol, 0.2% Tween 20, 0.3% NP-40, 1 mM NaF, 1 mM Na3VO4, 1 mM PMSF, 1x protease inhibitor mixture]. After washing with M buffer and kinase buffer, in vitro kinase reactions were carried out according to procedures described above. The DNA-PK in vitro kinase reaction was performed as previously described (Gottlieb and Jackson, 1993), using 20 ng each of DNA-PKcs or DNA-PK (20 ng DNA-PKcs premixed with 20 ng Ku 70/80).

[1] = GST-conjugated 14 amino acid peptides

T1 sequence (Q13315 whole entry, the tested form may be a part): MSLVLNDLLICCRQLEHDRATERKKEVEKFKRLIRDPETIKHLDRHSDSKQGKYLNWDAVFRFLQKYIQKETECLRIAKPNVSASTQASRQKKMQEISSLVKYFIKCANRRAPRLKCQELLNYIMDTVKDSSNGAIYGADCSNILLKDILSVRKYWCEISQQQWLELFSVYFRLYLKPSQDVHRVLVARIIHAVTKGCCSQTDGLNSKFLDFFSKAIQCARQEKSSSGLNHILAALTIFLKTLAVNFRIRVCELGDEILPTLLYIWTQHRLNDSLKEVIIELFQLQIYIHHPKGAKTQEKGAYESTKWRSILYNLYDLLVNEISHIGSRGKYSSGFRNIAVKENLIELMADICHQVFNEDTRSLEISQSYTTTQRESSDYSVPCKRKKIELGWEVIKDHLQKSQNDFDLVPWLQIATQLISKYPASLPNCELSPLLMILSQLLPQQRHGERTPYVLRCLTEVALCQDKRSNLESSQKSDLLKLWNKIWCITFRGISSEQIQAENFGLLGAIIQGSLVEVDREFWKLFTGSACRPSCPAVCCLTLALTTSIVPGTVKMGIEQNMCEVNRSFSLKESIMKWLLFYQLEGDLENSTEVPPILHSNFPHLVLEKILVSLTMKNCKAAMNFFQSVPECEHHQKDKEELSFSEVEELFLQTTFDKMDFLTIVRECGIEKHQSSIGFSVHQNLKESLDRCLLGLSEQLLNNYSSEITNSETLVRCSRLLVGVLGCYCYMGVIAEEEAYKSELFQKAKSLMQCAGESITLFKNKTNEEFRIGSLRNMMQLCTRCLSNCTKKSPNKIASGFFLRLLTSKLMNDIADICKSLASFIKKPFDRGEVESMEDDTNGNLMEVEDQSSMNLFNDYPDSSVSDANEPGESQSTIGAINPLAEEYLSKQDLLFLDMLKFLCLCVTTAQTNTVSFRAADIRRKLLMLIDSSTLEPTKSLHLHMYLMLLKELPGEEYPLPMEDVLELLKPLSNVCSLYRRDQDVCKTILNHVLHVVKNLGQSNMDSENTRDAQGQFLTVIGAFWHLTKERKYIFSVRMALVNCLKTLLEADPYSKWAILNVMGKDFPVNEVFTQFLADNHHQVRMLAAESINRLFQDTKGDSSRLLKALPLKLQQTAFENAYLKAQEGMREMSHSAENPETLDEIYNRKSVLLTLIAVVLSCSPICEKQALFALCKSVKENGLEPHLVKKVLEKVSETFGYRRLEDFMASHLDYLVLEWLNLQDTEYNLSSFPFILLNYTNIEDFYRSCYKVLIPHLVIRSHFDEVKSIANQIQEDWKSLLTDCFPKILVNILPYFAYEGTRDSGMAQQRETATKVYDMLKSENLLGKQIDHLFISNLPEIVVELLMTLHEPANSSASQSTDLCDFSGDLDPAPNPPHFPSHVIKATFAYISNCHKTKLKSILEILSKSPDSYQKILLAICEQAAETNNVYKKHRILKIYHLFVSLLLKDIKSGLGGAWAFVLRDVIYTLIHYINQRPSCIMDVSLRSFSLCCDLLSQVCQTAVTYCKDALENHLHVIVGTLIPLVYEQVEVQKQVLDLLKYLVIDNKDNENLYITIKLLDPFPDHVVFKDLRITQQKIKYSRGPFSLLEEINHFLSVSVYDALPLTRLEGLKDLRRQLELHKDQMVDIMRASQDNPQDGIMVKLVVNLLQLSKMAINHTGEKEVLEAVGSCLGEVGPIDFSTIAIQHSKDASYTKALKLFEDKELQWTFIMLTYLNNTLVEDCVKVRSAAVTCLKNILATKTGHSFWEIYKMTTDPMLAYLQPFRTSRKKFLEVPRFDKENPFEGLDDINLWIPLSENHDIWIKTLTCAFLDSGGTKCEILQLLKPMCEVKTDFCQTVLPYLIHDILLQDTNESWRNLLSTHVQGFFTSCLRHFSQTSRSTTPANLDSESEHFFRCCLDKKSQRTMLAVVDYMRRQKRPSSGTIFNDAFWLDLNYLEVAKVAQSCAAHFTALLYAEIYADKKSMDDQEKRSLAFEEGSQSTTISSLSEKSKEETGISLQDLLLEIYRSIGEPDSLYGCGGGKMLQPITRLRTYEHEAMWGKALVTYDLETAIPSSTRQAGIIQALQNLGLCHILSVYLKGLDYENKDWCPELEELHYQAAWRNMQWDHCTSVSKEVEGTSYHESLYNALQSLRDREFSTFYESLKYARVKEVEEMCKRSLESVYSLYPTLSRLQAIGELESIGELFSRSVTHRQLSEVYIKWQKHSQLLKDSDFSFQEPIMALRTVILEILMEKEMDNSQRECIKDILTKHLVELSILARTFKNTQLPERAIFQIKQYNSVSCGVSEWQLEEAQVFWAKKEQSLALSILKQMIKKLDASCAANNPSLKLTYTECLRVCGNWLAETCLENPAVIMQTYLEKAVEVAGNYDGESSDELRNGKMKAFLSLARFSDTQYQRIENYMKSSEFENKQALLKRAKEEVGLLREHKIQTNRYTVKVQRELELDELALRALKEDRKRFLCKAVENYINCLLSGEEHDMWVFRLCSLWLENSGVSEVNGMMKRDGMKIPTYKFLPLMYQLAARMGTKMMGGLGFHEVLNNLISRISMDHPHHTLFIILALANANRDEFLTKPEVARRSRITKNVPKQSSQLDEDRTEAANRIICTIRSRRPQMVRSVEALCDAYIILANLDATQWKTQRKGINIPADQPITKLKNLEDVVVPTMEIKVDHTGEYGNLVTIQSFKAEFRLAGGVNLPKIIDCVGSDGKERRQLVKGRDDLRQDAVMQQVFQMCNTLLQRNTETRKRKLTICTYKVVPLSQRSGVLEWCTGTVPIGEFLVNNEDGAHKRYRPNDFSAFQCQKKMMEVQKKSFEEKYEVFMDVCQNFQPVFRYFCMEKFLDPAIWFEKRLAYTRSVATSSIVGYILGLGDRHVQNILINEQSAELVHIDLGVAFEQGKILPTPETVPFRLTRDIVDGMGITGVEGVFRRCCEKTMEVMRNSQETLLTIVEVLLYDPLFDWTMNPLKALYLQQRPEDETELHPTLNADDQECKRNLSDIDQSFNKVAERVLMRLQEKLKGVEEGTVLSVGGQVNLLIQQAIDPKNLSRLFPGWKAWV

Relative Phosphorylation (%) ATM (ATM kinase) [%] | Relative Phosphorylation (%) ATR (ATR) [%] | Relative Phosphorylation (%) DNA-PK (DNA-PK) [%] | phosphorylation of GST-peptide substrate by ATM (in words) (ATM kinase; [1]) | phosphorylation of GST-peptide substrate by DNA-PK (in words) (DNA-PK; [1]) | Substance
3 | 145 | 15 | – | – | DNA 5B: GST-peptide QPEPPVSQSEISEP (SEQ ID NO:38), S72 (also: GST fusion)
5 | 36 | 48 | not by ATM | phosphorylated by DNA-PKcs | DNA LIG-IV: GST-peptide DLKLGVSQQTIFSV (SEQ ID NO:39), S132 (also: GST fusion)
20 | 48 | 10 | – | – | MRE11 (SQ1): GST-peptide QQLFYISQPGSSVV (SEQ ID NO:11), S264 (also: GST fusion)
<1 | 17 | <1 | – | – | MRE11 (SQ2): GST-peptide FSVLRFSQKFVDRV (SEQ ID NO:12), S386 (also: GST fusion)
<1 | 13 | <1 | – | – | MRE11 (SQ3): GST-peptide RARALRSQSEESAS (SEQ ID NO:13), S531 (also: GST fusion)
<1 | 150 | <1 | – | – | PI-3K: GST-peptide DLLMYLSQLVQALK (SEQ ID NO:26), S397 (also: GST fusion)
111 | 40 | 33 | – | – | PTS (123F2): GST-peptide WETPDLSQAEIEQK (SEQ ID NO:37), S61 (not fully specified (N-terminus); also: GST fusion)
81 | 733 | 97 | – | – | RAD17 (SQ1): GST-peptide TWSLPLSQDSASEL (SEQ ID NO:18), S646 (not fully specified (N-terminus); also: GST fusion)
91 | 1065 | 25 | – | – | RAD17 (SQ2): GST-peptide ASELPASQPQPFSA (SEQ ID NO:19), S656 (not fully specified (N-terminus); also: GST fusion; listed as Homo sapiens)
<1 | 5 | <1 | – | – | RPA34kD (SQ1): GST-peptide FPAPAPSQAEKKSR (SEQ ID NO:40), S33 (not fully specified (N-terminus); also: GST fusion; listed as Homo sapiens)
<1 | 31 | <1 | – | – | RPA34kD (SQ2): GST-peptide IVPCTISQLLSATL (SEQ ID NO:41), S52 (not fully specified (N-terminus); also: GST fusion; listed as Homo sapiens)
<1 | 8 | <1 | – | – | RPA34kD (SQ3): GST-peptide TGNVEISQVTIVGI (SEQ ID NO:42), S72 (not fully specified (N-terminus); also: GST fusion; listed as Homo sapiens)
25 | 49 | 14 | – | – | WRN (SQ1): GST-peptide EKAYSSSQPVISAQ (SEQ ID NO:21), S1141 (not fully specified (N-terminus); also: GST fusion; listed as Homo sapiens)
10 | 33 | 5 | – | – | WRN (SQ2): GST-peptide TIGMHLSQAVKAGC (SEQ ID NO:20), S1292 (not fully specified (N-terminus); also: GST fusion; listed as Homo sapiens)
<1 | 8 | <1 | – | – | c-ABL: GST-peptide YPGIDLSQVYELLE (SEQ ID NO:23), S446 (not fully specified (N-terminus); also: GST fusion; listed as Homo sapiens)
9 | 31 | 132 | – | – | p53 S37: GST-peptide VLSPLPSQAMDDLM (SEQ ID NO:8), p53 serine 37 site (not fully specified (N-terminus); also: GST fusion; listed as Homo sapiens)
19 | 31 | 45 | – | – | p95: GST-peptide TPGPSLSQGVSVDE (SEQ ID NO:10), S343 (not fully specified (N-terminus); also: GST fusion; listed as Homo sapiens)
<1 | 15 | <1 | – | – | p115-RhoGEF: GST-peptide RLRPLLSQLGGNSV (SEQ ID NO:27), S899 (not fully specified (N-terminus); also: GST fusion; listed as Homo sapiens)
11 | 30 | 2 | – | – | p120E4F: GST-peptide APEPPVSQELPCSR (SEQ ID NO:31), S355 (not fully specified (N-terminus); also: GST fusion; listed as Homo sapiens)
